Source: patent publication US11390653B2, “Amino acid-specific binder and selectively identifying an amino acid” (priority 2018, dated 2022)

Columns and labels:
W1G2 peptide [1] = biological target: T1, W1G2 peptide (Agrobacterium fabrum, UniProt Q8UD95, E37S/P35C/R36P); assay type: binding; design: His6 (N); TEV protease cleavage site (N); made in house; host or cells: BL21 Escherichia coli; settings: SPR
Procedure: (§1) With regard to surface plasmon resonance (SPR), SPR data was collected by loading a streptavidin chip with the target biotinylated peptides in each of the four channels, and then flowing the protein over the chip at each concentration for 180 seconds before washing with 50 mM Tris-HCl, pH 8.0, 300 mM NaCl, 1 mM DTT, 5% glycerol buffer for 180 seconds. […] The four channels were used such that the negative control peptide (A1G2) was in channel 1, F1G2 in channel 2, W1G2 in channel 3, and Y1G2 in channel 4. The negative control peptide channel was used as a baseline for subtraction, which accommodates both any non-specific binding and refractive index change. A steady state response at each concentration was plotted and fit to calculate the KD, while the resonance units vs. time was used to calculate a koff for each mutant protein with each peptide.
(§2) Regarding characterization of the ClpS mutant protein binding kinetics, for peptide sequencing via some recently proposed methods reagents can bind peptides affixed to a surface. Two A. tumefaciens ClpS2 protein variants (V2, described above, and V1) were expressed and purified from E. coli. […] The binding properties of each variant were analyzed using surface plasmon resonance (SPR).

F1G2 peptide [2] = experiment: SPR, peptide on streptavidin chip, ClpS2 variant protein in solution; assay type: binding; settings: for specificity between N-terminal Phe and Trp, in words: from SPR binding data
Procedure: as §1, §2

Y1G2 peptide = experiment: as above; assay type: binding
Procedure: as §1, §2

W1G2 peptide [3] = biological target: T1, W1G2 peptide; experiment: flow cytometry of yeast displaying ClpS proteins; assay type: binding; design: factor Xa cleavage site (N); expressed in transfected cells; host or cells: Saccharomyces cerevisiae EBY100, pCTCON2 library clone; settings: yeast-displayed protein
Procedure: After two rounds of MACs selection, the library was sorted by flow cytometry. […] A typical reaction contained 100 μL of cells (containing approximately 10^6 cells), 10 μL of peptide at a concentration between 10 nM to 10 μM, and 25 μL of a master mix containing 2 μL of an anti-myc antibody, 4 μL of the SAPE (streptavidin, R-phycoerythrin conjugate—1 mg/mL) and 19 μL of PBS/BSA for each sample.
Cells were washed with PBS/BSA and sorted using a FACS Aria cytometer and collected in 1 mL of SD-CAA media. The number of cells that bound the peptide improved with each round and were sorted with sequentially lower concentrations of peptide to increase the stringency of the selection. […]
With regard to directed evolution of ClpS, random mutagenesis and screening was used to select proteins with higher affinity binding to the target NAA. In subsequent steps, specific residues were determined from initial screens with a targeted mutagenesis step. […] Using FACS, we assessed the affinity of each mutant for the N-terminal amino acid on the target peptide based on which quadrant the fluorescent signal fell into as shown in FIG. 15. […] If there is also a high fluorescence signal along the x-axis (streptavidin-PE) then the peptide is presumably bound to the protein variant, and the signal will appear in Q2. […]

F1G2 peptide [4] = experiment: yeast/peptide colorimetric pull-down assay; assay type: binding; settings: yeast-displayed protein
Procedure: (§3) Incubation and wash steps were repeated.

Tyr NAA peptide = experiment: yeast/peptide colorimetric pull-down assay; assay type: binding; settings: yeast-displayed protein
Procedure: as §3

Leu NAA peptide = experiment: yeast/peptide colorimetric pull-down assay; assay type: binding; settings: yeast-displayed protein
Procedure: as §3

[5] = thermal stability by intrinsic protein fluorescence; assay type: physicochemical; settings: compared with wild-type and V1
Procedure: The thermal stability of the variants was assessed. Each variant was loaded in 3×PBS at approximately 1 mg/mL concentration in capillary tubes and the intrinsic protein fluorescence recorded at 330 nm and 350 nm while heating the sample over a 35-95° C. at a rate of […].

W1G2 peptide [6] = assay type: binding
Procedure: as §1, §2

[7] = relative specificity factor, ratio of binding affinities

B1: A. tumefaciens ClpS2 [Cys34 Pro35 Ser36] (protein, listed as Escherichia coli)
chain: SDSPVDLKPKPKVKPKLERPKLYKVMLLNDDYTCPSFVTVVLKAVFRMSEDTGRRVMMTAHRFGSAVVVVCERDIAETKAKEATDLGKEAGFPLMFTTEPEE
notes: ClpS2 variant, native residues 34-36 ProArgGlu mutated to CysProSer
decrease in KD for W1G2 peptide compared to wild-type (W1G2 peptide [1]): 6.6 fold | dissociation rate slowed over wild-type, Trp (W1G2 peptide [1]): 51.3 fold | dissociation rate slowed over wild-type, Phe (F1G2 peptide [2]; SPR): 27.9 fold | specificity between N-terminal Phe and Trp, in words (F1G2 peptide [2]): more specific for Phe over Trp than the wild-type protein | specificity between N-terminal Phe and Trp, in words (F1G2 peptide [2]; listed as CysProSer variant): selectively bound to Trp over Phe | KOFF Phe (F1G2 peptide [2]; from SPR dissociation curves): 0.03 s⁻¹ | affinity for N-terminal Phe relative to wild-type, in words (F1G2 peptide [2]; in vitro surface binding assays): greater affinity | Selectivity for Phe, Phe/Phe (F1G2 peptide [2]; [7]): 1.0 | Selectivity for Phe, Phe/Trp (F1G2 peptide [2]; [7]): 1.32 | Selectivity for Phe, Phe/Tyr (F1G2 peptide [2]; [7]): 0.10 | Kd (F1G2 peptide [2]; steady state, peptide on surface, 0 to 50 μM protein, read-out: KD Phe): 3.7 ± 0.3 µM | KOFF Tyr (Y1G2 peptide; from SPR dissociation curves): 0.05 s⁻¹ | Selectivity for Tyr, Tyr/Phe (Y1G2 peptide; [7]): 9.82 | Selectivity for Tyr, Tyr/Trp (Y1G2 peptide; [7]): 12.91 | Selectivity for Tyr, Tyr/Tyr (Y1G2 peptide; [7]): 1.0 | Kd (Y1G2 peptide; steady state, peptide on surface, 0 to 50 μM protein, read-out: KD Tyr): 36.1 ± 4.4 µM | affinity for W1G2 peptide compared to wild-type (W1G2 peptide [3]): improved affinity | affinity for F1G2 peptide compared to wild-type (F1G2 peptide [4]): increased binding affinity | binding affinity to Tyr compared to wild-type (Tyr NAA peptide): increased binding affinity | binding to Leu (Leu NAA peptide): increased affinity | thermal stability [5]: not as thermally stable | KOFF Trp (W1G2 peptide [6]; from SPR dissociation curves): 0.03 s⁻¹ | affinity for N-terminal Trp relative to wild-type, in words (W1G2 peptide [6]; in vitro surface binding assays / SPR): greater affinity | Selectivity for Trp, Trp/Phe (W1G2 peptide [6]; [7]): 0.76 | Selectivity for Trp, Trp/Trp (W1G2 peptide [6]; [7]): 1.0 | Selectivity for Trp, Trp/Tyr (W1G2 peptide [6]; [7]): 0.08 | Kd (W1G2 peptide [6]; steady state, peptide on surface, 0 to 50 μM protein, read-out: KD Trp): 2.8 ± 0.3 µM
